# Tests used:
# Test in all cases: cell-based or functional assay
# [1] = molecular target: murine IL-12 receptor on mouse CD14- PBMC (mouse) (UniProt P97378)
# [2] = molecular target: rhesus monkey IL-12 receptor on rhesus monkey CD14- PBMC (rhesus monkey) (UniProt F6X0C8)
# [3] = molecular target: rat IL-12 receptor on rat PBMC (rat)
# Sequence of murine IL-12 receptor on mouse CD14- PBMC (mouse) (P97378 24-874): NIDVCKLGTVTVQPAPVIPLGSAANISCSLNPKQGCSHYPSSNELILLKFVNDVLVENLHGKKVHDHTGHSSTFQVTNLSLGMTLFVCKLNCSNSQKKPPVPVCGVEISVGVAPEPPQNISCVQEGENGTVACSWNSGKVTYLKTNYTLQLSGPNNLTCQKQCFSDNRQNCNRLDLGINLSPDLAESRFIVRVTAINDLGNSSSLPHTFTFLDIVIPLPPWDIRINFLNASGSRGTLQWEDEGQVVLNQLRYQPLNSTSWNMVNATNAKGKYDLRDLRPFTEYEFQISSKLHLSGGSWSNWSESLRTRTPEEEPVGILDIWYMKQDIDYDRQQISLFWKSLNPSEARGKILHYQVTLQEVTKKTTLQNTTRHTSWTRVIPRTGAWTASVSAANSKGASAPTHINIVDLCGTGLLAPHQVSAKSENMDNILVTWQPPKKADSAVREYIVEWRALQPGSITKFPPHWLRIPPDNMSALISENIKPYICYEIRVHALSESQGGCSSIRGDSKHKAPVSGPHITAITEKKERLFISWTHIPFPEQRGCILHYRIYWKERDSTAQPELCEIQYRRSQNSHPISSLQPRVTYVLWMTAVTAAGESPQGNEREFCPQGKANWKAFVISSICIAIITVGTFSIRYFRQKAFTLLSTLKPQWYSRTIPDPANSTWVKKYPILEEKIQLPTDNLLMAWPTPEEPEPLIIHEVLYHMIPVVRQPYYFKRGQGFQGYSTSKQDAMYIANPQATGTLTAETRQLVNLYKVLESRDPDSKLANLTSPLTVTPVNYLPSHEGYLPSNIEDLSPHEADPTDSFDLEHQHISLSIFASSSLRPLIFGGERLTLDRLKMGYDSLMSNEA
# Sequence of rhesus monkey IL-12 receptor on rhesus monkey CD14- PBMC (rhesus monkey) (F6X0C8 entry or part of it): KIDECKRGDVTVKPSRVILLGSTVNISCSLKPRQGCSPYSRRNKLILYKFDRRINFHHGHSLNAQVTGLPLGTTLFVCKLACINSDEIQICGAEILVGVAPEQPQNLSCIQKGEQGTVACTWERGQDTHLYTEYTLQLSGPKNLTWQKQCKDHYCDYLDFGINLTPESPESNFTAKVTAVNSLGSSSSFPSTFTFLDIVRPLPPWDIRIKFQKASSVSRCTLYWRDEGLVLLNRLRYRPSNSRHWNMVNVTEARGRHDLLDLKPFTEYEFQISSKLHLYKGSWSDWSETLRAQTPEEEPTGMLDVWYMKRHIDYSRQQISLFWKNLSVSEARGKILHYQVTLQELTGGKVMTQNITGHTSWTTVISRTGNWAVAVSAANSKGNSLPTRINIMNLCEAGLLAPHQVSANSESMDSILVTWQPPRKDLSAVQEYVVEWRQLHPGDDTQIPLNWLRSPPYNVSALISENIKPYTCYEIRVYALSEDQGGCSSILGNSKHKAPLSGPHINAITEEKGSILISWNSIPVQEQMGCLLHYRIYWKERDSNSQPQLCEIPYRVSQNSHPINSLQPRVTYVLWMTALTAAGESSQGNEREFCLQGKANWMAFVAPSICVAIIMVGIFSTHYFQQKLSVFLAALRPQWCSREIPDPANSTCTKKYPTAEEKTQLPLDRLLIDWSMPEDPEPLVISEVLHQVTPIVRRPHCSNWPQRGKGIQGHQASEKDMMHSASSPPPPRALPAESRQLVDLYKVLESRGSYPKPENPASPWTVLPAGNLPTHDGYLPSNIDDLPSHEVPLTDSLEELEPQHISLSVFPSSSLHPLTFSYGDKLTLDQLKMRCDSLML
"EC50 for stimulating IFN-γ secretion from CD14- PBMC (ELISA, 16 hours) [1]","EC50 for stimulating IFN-γ secretion from CD14- PBMC (ELISA, 16 hours) [2]",EC50 for stimulating IFN-γ secretion from PBMC [3],EC50 for stimulating IFN-γ secretion from PBMC [1],Substance
0.35 pM,–,–,–,recombinant murine IL-12 (from UniProt P43431 23-215; P43432 24-335) (ligand)
–,1.05 pM,> 1000 pM,> 1000 pM,recombinant human IL-12 (from UniProt P29459 23-219; P29460 23-328) (ligand)

# Source: patent US20130243722A1
